Measured values as given in publication PMC3436577 (The Journal of Biological Chemistry, 2012).

B1: eIF5 (natural protein)
chain: MSINICRDNHDPFYRYKMPPIQAKVEGRGNGIKTAVLNVADISHALNRPAPYIVKYFGFELGAQTSISVDKDRYLVNGVHEPAKLQDVLDGFINKFVLCGSCKNPETEIIITKDNDLVRDCKACGKRTPMDLRHKLSSFILKNPPDSVSGSKKKKKAATASANVRGGGLSISDIAQGKSQNAPSDGTGSSTPQHHDEDEDELSRQIKAAASTLEDIEVKDDEWAVDMSEEAIRARAKELEVNSELTQLDEYGEWILEQAGEDKENLPSDVELYKKAAELDVLNDPKIGCVLAQCLFDEDIVNEIAEHNAFFTKILVTPEYEKNFMGGIERFLGLEHKDLIPLLPKILVQLYNNDIISEEEIMRFGTKSSKKFVPKEVSKKVRRAAKPFITWLETAESDDDEEDDE
B2: c/Nip1-NTD (1–270) Box12-SPW (domain or fragment)
chain: MSRFFSSNYEYDVASSSSEEDLLSSSEEDLLSSSSSESELDQESDDSFFNESESESEADVDSDDSDAKPYGPDWFKKSEFRKQGGGSNKFLKSSNYDSSDEESDEEDGKKVVSSAPEWLLDEMQDVYNKISQAENSDDWLTISNEFDLISRLLVRAQQQNWGTPNIFIKVVAQVEDAVNNTQQADLKNKAVARAYNTTKQRVKKVSRENEDSMAKFRNDPESFDKEPTADLDISANGFTISSSQGNDQAVQEDFFTRLQTIIDSRGKKTV
modifications: 35S-labeled

Legend:
Test in all cases: pull-down
[1] = target: c/Nip1-His GAP85 (Δ60–144) (S. cerevisiae, UniProt P32497 1-812, Δ60–144)
[2] = target: c/Nip1-His Box12-WWPW (S. cerevisiae, UniProt P32497 1-812, V111W | V112W | K116P | K118W)
[3] = target: c/Nip1-His Box15-2 (S. cerevisiae, UniProt P32497 1-812, I142V | E145W | F146T | D147L | I149R)
[4] = target: GST-eIF1 (S. cerevisiae, UniProt P32911 1-108)
Chain of GST-eIF1 (P32911 whole entry): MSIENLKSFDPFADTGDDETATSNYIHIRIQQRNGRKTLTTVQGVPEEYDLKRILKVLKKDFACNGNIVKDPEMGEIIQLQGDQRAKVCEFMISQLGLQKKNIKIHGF

Binder | reduction of eIF5 associated in vivo, relative to WT c/Nip1-His [1] [%] | reduction of eIF5 associated in vivo, relative to WT c/Nip1-His [2] [%] | reduction of eIF5 associated in vivo, relative to WT c/Nip1-His [3] [%] | fold increase in binding relative to the WT c/Nip1-NTD [4] [fold]
B1 | > 60 | ~30 | > 60 | 
B2 |  |  |  | ~2
